Assay results reported in patent US20220363716A1.

Experiments:
[1] = molecular target: human serum-derived IgG (SIGMA, #14506, Lot #SLBR0560V) (human); assay: elution at pH 3.5 from the 1-ml Z33 column, A280
[2] = molecular target: human serum-derived IgG (SIGMA, #14506, Lot #SLBR0560V) (human); assay: frontal loading of 0.67 mg/ml IgG on a 1-ml Z33 column (912 nmol), 20 mM phosphate pH 7.0

amount of the antibody bound to the column [1]: 19 mg | dynamic binding capacity (DBC) [2]: 26 mg
Substance: IgG-bound peptide Z33 Acetyl-…-NH2, immobilized on a HiTrap NHS-activated HP column
